Article PMC6669903 (Neuron, 2019)

Test system: Tiam1/CaMKII complex
Type: cell-based
Conditions: bath application (AP5, KN-93) or cotransfection (CaMKIIN)

B1: CaMKIIN: endogenous CaMKII inhibitor protein, cotransfected (protein)
chain: MSEILPYGEDKMGRFGADPEGSDLSFSCRLQDTNSFFAGNQAKRPPKLGQIGRAKRVVIEDDRIDDVLKGMGEKPPSGV
Question: For B1, which “effect on Tiam1/CaMKII interaction after sLTP induction” value is on record?
Answer: blocked
